Test results as given in publication PMC6471090.

Assays:
[1] = target: wild-type green fluorescent protein (GFP) (Aequorea victoria) [GFP: P42212]; test: single-molecule photobleaching step counting and fluorescence intensity distribution (TIRFM); purified protein, 0.17 μg/mL solution, single spots imaged on the coverslip surface; 473-nm laser; self-association (monomer to dimer)
[2] = target: wild-type green fluorescent protein (GFP) (Aequorea victoria) [GFP: P42212]; test: single-molecule photobleaching step counting and fluorescence intensity distribution (TIRFM); purified protein, 0.57 μg/mL solution, single spots imaged on the coverslip surface; 473-nm laser; self-association (monomer to dimer)

Work on “wild-type green fluorescent protein (GFP) (from UniProt P42212 1-238) (natural protein)” yielded a percent of spots with one-step photobleaching (monomers) [1] of 96.5%, a percent of spots with two-step photobleaching (dimers) [1] of 3.5% and a stoichiometry N [1] of 2. The percent of spots in the major intensity population (monomers) [2] was 97% and the percent of spots with two-step photobleaching (dimers) [2] was 8.6%.
